Values joined by “and” are separate entries in the source; they are usually repeats but may differ in a detail not shown here. Identical values can stand only once. Like-named read-outs stand apart in the source and are kept apart here.
T1: recombinant human APRIL (Tonbo Biosciences) (human, UniProt O75888 105-250, limits assumed)
T1 sequence (looked up): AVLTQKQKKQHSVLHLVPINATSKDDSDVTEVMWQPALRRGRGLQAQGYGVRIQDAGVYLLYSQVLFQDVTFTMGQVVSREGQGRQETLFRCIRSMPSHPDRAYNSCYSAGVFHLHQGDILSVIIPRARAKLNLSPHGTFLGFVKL

B1: atacicept (WT TACI-Fc sequences corresponding to atacicept, containing WT TACI 30-110; SEQ ID NO:132) (Fc fusion)
chain: AMRSCPEEQYWDPLLGTCMSCKTICNHQSQRTCAAFCRSLSCRKEQGKFYDHLLRDCISCASICGQHPKQCAYFCENKLRSEPKSSDKTHTCPPCPAPEAEGAPSVFLFPPKPKDTLMISRTPEVTCVVVDVSHEDPEVKFNWYVDGVEVHNAKTKPREEQYNSTYRVVSVLTVLHQDWLNGKEYKCKVSNKALPSSIEKTISKAKGQPREPQVYTLPPSRDELTKNQVSLTCLVKGFYPSDIAVEWESNGQPENNYKTTPPVLDSDGSFFLYSKLTVDKSRWQQGNVFSCSVMHEALHNHYTQKSLSLSPGK
B2: TACI WT 13 (G4S)4 (84) (TACI WT 13 GSG4S (74) Fc 73 (SEQ ID NO: 198) (Fc fusion)
chain: SLSCRKEQGKFYDHLLRDCISCASICGQHPKQCAYFCENKLRSGGGGSGGGGSGGGGSGGGGSSLSCRKEQGKFYDHLLRDCISCASICGQHPKQCAYFCENKLRSGSGGGGSEPKSSDKTHTCPPCPAPEAEGAPSVFLFPPKPKDTLMISRTPEVTCVVVDVSHEDPEVKFNWYVDGVEVHNAKTKPREEQYNSTYRVVSVLTVLHQDWLNGKEYKCKVSNKALPAPIEKTISKAKGQPREPQVYTLPPSRDELTKNQVSLTCLVKGFYPSDIAVEWESNGQPENNYKTTPPVLDSDGSFFLYSKLTVDKSRWQQGNVFSCSVMHEALHNHYTQKSLSLSPG
B3: TACI WT 13 GSG4S (74) Fc 73(G4S)4 (84) (TACI WT 13 (SEQ ID NO: 202) (Fc fusion)
chain: SLSCRKEQGKFYDHLLRDCISCASICGQHPKQCAYFCENKLRSGSGGGGSEPKSSDKTHTCPPCPAPEAEGAPSVFLFPPKPKDTLMISRTPEVTCVVVDVSHEDPEVKFNWYVDGVEVHNAKTKPREEQYNSTYRVVSVLTVLHQDWLNGKEYKCKVSNKALPAPIEKTISKAKGQPREPQVYTLPPSRDELTKNQVSLTCLVKGFYPSDIAVEWESNGQPENNYKTTPPVLDSDGSFFLYSKLTVDKSRWQQGNVFSCSVMHEALHNHYTQKSLSLSPGGGGGSGGGGSGGGGSGGGGSSLSCRKEQGKFYDHLLRDCISCASICGQHPKQCAYFCENKLRS
B4: TACI 26 GSG4S (74) Fc 73 (G4S)4 (84) TACI 26 (SEQ ID NO: 201) (Fc fusion)
chain: SLSCRKEQGEYYDHLLRDCISCASICGQHPKQCADFCENKLRSGSGGGGSEPKSSDKTHTCPPCPAPEAEGAPSVFLFPPKPKDTLMISRTPEVTCVVVDVSHEDPEVKFNWYVDGVEVHNAKTKPREEQYNSTYRVVSVLTVLHQDWLNGKEYKCKVSNKALPAPIEKTISKAKGQPREPQVYTLPPSRDELTKNQVSLTCLVKGFYPSDIAVEWESNGQPENNYKTTPPVLDSDGSFFLYSKLTVDKSRWQQGNVFSCSVMHEALHNHYTQKSLSLSPGGGGGSGGGGSGGGGSGGGGSSLSCRKEQGEYYDHLLRDCISCASICGQHPKQCADFCENKLRS
B5: Telitacicept/Tai'ai (RemeGen) (Fc fusion)
chain: SRVDQEERFPQGLWTGVAMRSCPEEQYWDPLLGTCMSCKTICNHQSQRTCAAFCRSLSCRKEQGKFYDHLLRDCISCASICGQHPKQCAYFCENKLRSPVNLPPEL
B6: belimumab, anti-BAFF monoclonal antibody (antibody, V domains shown)
VH: QVQLQQSGAEVKKPGSSVRVSCKASGGTFNNNAINWVRQAPGQGLEWMGGIIPMFGTAKYSQNFQGRVAITADESTGTASMELSSLRSEDTAVYYCARSRDLLLFPHHALSPWGRGTMVTVSS
VL: SSELTQDPAVSVALGQTVRVTCQGDSLRSYYASWYQQKPGQAPVLVIYGKNNRPSGIPDRFSGSSSGNTASLTITGAQAEDEADYYCSSRDSSGNHWVFGGGTELTVLG

Assays:
Test in all cases: cell-based or functional assay
[1] = target: T2, recombinant human BAFF (BioLegend) (human, UniProt Q9Y275 134-285)
[2] = target: T1, recombinant human APRIL (Tonbo …)
[3] = target: T2, recombinant human BAFF (BioLegend); remark: listed apart in the source
[4] = target: T2, recombinant human BAFF (BioLegend); remark: listed apart in the source
[5] = target: T1, recombinant human APRIL (Tonbo …); remark: listed apart in the source
[6] = target: BAFF 60-mer (an oligomer of twenty BAFF 3-mers)
[7] = target: T2, recombinant human BAFF (BioLegend); remark: listed apart in the source
[8] = target: T1, recombinant human APRIL (Tonbo …); remark: listed apart in the source

Binder | IC50 (pM) BAFF [1] | IC50 (pM) APRIL [2] | BAFF IC50 (pM) [3] | BAFF IC50 (Δ WT) [3] | BAFF IC50 (pM) [4] | APRIL IC50 (pM) [5] | BAFF 60-mer IC50 (pM) [6] | also measured
B1 | 8280 pM | 9260 pM | 7740 pM | 4.17 ratio |  |  |  | 
B2 |  |  |  |  | 3290 pM | 34600 pM | 4330 pM | 
B3 |  |  |  |  | 1040 pM | 11900 pM | 2580 pM | 
B4 |  |  |  |  | 779 pM | 3760 pM | 778 pM | 
B5 | 6850 pM | 17200 pM | 9170 pM and 7300 pM |  |  |  |  | 
B6 | 2260 pM |  | 2200 pM | 1.18 ratio |  |  |  | IC50 (nM) BAFF [7]: 2500 nM; IC50 BAFF (Δ TACI 30-110-Fc) [7]: 0.43 ratio; IC50 (nM) APRIL [8]: 215000 nM; IC50 APRIL (Δ TACI 30-110-Fc) [8]: 55.8 ratio
